# According to patent US20230250154A1:
# Residue numbers refer to the chain shown, from its start. Names and notes keep the numbering of the source.
# B1: Variant A2M, bait region SEQ ID NO 135, P01023 24-1474 (protein)
# chain: SVSGKPQYMVLVPSLLHTETTEKGCVLLSYLNETVTVSASLESVRGNRSLFTDLEAENDVLHCVAFAVPKSSSNEEVMFLTVQVKGPTQEFKKRTTVMVKNEDSLVFVQTDKSIYKPGQTVKFRVVSMDENFHPLNELIPLVYIQDPKGNRIAQWQSFQLEGGLKQFSFPLSSEPFQGSYKVVVQKKSGGRTEHPFTVEEFVLPKFEVQVTVPKIITILEEEMNVSVCGLYTYGKPVPGHVTVSICRKYSDASDCHGEDSQAFCEKFSGQLNSHGCFYQQVKTKVFQLKRKEYEMKLHTEAQIQEEGTVVELTGRQSSEITRTITKLSFVKVDSHFRQGIPFFGQVRLVDGKGVPIPNKVIFIRGNEANYYSNATTDEHGLVQFSINTTNVMGTSLTVRVNYKDRSPCYGYQWVSEEHEEAHHTAYLVFSPSKSFVHLEPMSHELPCGHTQTVQAHYILNGGTLLGLKKLSFYYLIMAKGGIVRTGTHGLLVKQEDMKGHFSISIPVKSDIAPVARLLIYAVLPTGDVIGDSAKYDVENCLANKVDLSFSPSQSLPASHAHLRVTAAPQSVCALRAVDQSVLLMKPDAELSASSVYNLLPEKDLTGFPGPLNDQDDEDCINRHNVYINGITYTPVSSTNEKDMYSFLEDMGLKAFTNSKIRKPKMCPQLEQYEMHGPIPENFFGVSELEGRGSSEDLVVQIKEEEGLGSVEEPHTKLRKYFPETWIWDLVVVNSAGVAEVGVTVPDTITEWKAGAFCLSEDAGLGISSTASLRAFQPFFVELTMPYSVIRGEAFTLKATVLNYLPKCIRVSVQLEASPAFLAVPVEKEQAPHCICANGRQTVSWAVTPKSLGNVNFTVSAEALESQELCGTEVPSVPEHGRKDTVIKPLLVEPEGLEKETTFNSLLCPSGGEVSEELSLKLPPNVVEESARASVSVLGDILGSAMQNTQNLLQMPYGCGEQNMVLFAPNIYVLDYLNETQQLTPEIKSKAIGYLNTGYQRQLNYKHYDGSYSTFGERYGRNQGNTWLTAFVLKTFAQARAYIFIDEAHITQALIWLSQRQKDNGCFRSSGSLLNNAIKGGVEDEVTLSAYITIALLEIPLTVTHPVVRNALFCLESAWKTAQEGDHGSHVYTKALLAYAFALAGNQDKRKEVLKSLNEEAVKKDNSVHWERPQKPKAPVGHFYEPQAPSAEVEMTSYVLLAYLTAQPAPTSEDLTSATNIVKWITKQQNAQGGFSSTQDTVVALHALSKYGAATFTRTGKAAQVTIQSSGTFSSKFQVDNNNRLLLQQVSLPELPGEYSMKVTGEGCVYLQTSLKYNILPEKEEFPFALGVQTLPQTCDEPKAHTSFQISLSVSYTGSRSASNMAIVDVKMVSGFIPLKPTVKMLERSNHVSRTEVSSNHVLIYLDKVSNQTLSLFFTVLQDVPVRDLKPAIVKVYDYYETDEFAIAEYNAPCSKDLGNADYKDDDDKGASHHHHHH
# B2: Variant A2M, bait region SEQ ID NO 137, P01023 24-1474 (protein)
# chain: SVSGKPQYMVLVPSLLHTETTEKGCVLLSYLNETVTVSASLESVRGNRSLFTDLEAENDVLHCVAFAVPKSSSNEEVMFLTVQVKGPTQEFKKRTTVMVKNEDSLVFVQTDKSIYKPGQTVKFRVVSMDENFHPLNELIPLVYIQDPKGNRIAQWQSFQLEGGLKQFSFPLSSEPFQGSYKVVVQKKSGGRTEHPFTVEEFVLPKFEVQVTVPKIITILEEEMNVSVCGLYTYGKPVPGHVTVSICRKYSDASDCHGEDSQAFCEKFSGQLNSHGCFYQQVKTKVFQLKRKEYEMKLHTEAQIQEEGTVVELTGRQSSEITRTITKLSFVKVDSHFRQGIPFFGQVRLVDGKGVPIPNKVIFIRGNEANYYSNATTDEHGLVQFSINTTNVMGTSLTVRVNYKDRSPCYGYQWVSEEHEEAHHTAYLVFSPSKSFVHLEPMSHELPCGHTQTVQAHYILNGGTLLGLKKLSFYYLIMAKGGIVRTGTHGLLVKQEDMKGHFSISIPVKSDIAPVARLLIYAVLPTGDVIGDSAKYDVENCLANKVDLSFSPSQSLPASHAHLRVTAAPQSVCALRAVDQSVLLMKPDAELSASSVYNLLPEKDLTGFPGPLNDQDDEDCINRHNVYINGITYTPVSSTNEKDMYSFLEDMGLKAFTNSKIRKPKMCPQLEQYEMHGPSEDLVVQIKEEEGLGSIPENFFGVSELEGRGSVEEPHTKLRKYFPETWIWDLVVVNSAGVAEVGVTVPDTITEWKAGAFCLSEDAGLGISSTASLRAFQPFFVELTMPYSVIRGEAFTLKATVLNYLPKCIRVSVQLEASPAFLAVPVEKEQAPHCICANGRQTVSWAVTPKSLGNVNFTVSAEALESQELCGTEVPSVPEHGRKDTVIKPLLVEPEGLEKETTFNSLLCPSGGEVSEELSLKLPPNVVEESARASVSVLGDILGSAMQNTQNLLQMPYGCGEQNMVLFAPNIYVLDYLNETQQLTPEIKSKAIGYLNTGYQRQLNYKHYDGSYSTFGERYGRNQGNTWLTAFVLKTFAQARAYIFIDEAHITQALIWLSQRQKDNGCFRSSGSLLNNAIKGGVEDEVTLSAYITIALLEIPLTVTHPVVRNALFCLESAWKTAQEGDHGSHVYTKALLAYAFALAGNQDKRKEVLKSLNEEAVKKDNSVHWERPQKPKAPVGHFYEPQAPSAEVEMTSYVLLAYLTAQPAPTSEDLTSATNIVKWITKQQNAQGGFSSTQDTVVALHALSKYGAATFTRTGKAAQVTIQSSGTFSSKFQVDNNNRLLLQQVSLPELPGEYSMKVTGEGCVYLQTSLKYNILPEKEEFPFALGVQTLPQTCDEPKAHTSFQISLSVSYTGSRSASNMAIVDVKMVSGFIPLKPTVKMLERSNHVSRTEVSSNHVLIYLDKVSNQTLSLFFTVLQDVPVRDLKPAIVKVYDYYETDEFAIAEYNAPCSKDLGNADYKDDDDKGASHHHHHH
# B3: Variant A2M, bait region SEQ ID NO 138, P01023 24-1474 (protein)
# chain: B2 chain with K686E, E687G, E689G, G690E, L691G, G692E, S693G, S702K, L704E, R707L
# B4: Variant A2M, bait region SEQ ID NO 136, P01023 24-1474 (protein)
# chain: SVSGKPQYMVLVPSLLHTETTEKGCVLLSYLNETVTVSASLESVRGNRSLFTDLEAENDVLHCVAFAVPKSSSNEEVMFLTVQVKGPTQEFKKRTTVMVKNEDSLVFVQTDKSIYKPGQTVKFRVVSMDENFHPLNELIPLVYIQDPKGNRIAQWQSFQLEGGLKQFSFPLSSEPFQGSYKVVVQKKSGGRTEHPFTVEEFVLPKFEVQVTVPKIITILEEEMNVSVCGLYTYGKPVPGHVTVSICRKYSDASDCHGEDSQAFCEKFSGQLNSHGCFYQQVKTKVFQLKRKEYEMKLHTEAQIQEEGTVVELTGRQSSEITRTITKLSFVKVDSHFRQGIPFFGQVRLVDGKGVPIPNKVIFIRGNEANYYSNATTDEHGLVQFSINTTNVMGTSLTVRVNYKDRSPCYGYQWVSEEHEEAHHTAYLVFSPSKSFVHLEPMSHELPCGHTQTVQAHYILNGGTLLGLKKLSFYYLIMAKGGIVRTGTHGLLVKQEDMKGHFSISIPVKSDIAPVARLLIYAVLPTGDVIGDSAKYDVENCLANKVDLSFSPSQSLPASHAHLRVTAAPQSVCALRAVDQSVLLMKPDAELSASSVYNLLPEKDLTGFPGPLNDQDDEDCINRHNVYINGITYTPVSSTNEKDMYSFLEDMGLKAFTNSKIRKPKMCPQLEQYEMHGPKEEEGLGSIPENFFGVSELEGRGSEGEGEGEGVEEPHTKLRKYFPETWIWDLVVVNSAGVAEVGVTVPDTITEWKAGAFCLSEDAGLGISSTASLRAFQPFFVELTMPYSVIRGEAFTLKATVLNYLPKCIRVSVQLEASPAFLAVPVEKEQAPHCICANGRQTVSWAVTPKSLGNVNFTVSAEALESQELCGTEVPSVPEHGRKDTVIKPLLVEPEGLEKETTFNSLLCPSGGEVSEELSLKLPPNVVEESARASVSVLGDILGSAMQNTQNLLQMPYGCGEQNMVLFAPNIYVLDYLNETQQLTPEIKSKAIGYLNTGYQRQLNYKHYDGSYSTFGERYGRNQGNTWLTAFVLKTFAQARAYIFIDEAHITQALIWLSQRQKDNGCFRSSGSLLNNAIKGGVEDEVTLSAYITIALLEIPLTVTHPVVRNALFCLESAWKTAQEGDHGSHVYTKALLAYAFALAGNQDKRKEVLKSLNEEAVKKDNSVHWERPQKPKAPVGHFYEPQAPSAEVEMTSYVLLAYLTAQPAPTSEDLTSATNIVKWITKQQNAQGGFSSTQDTVVALHALSKYGAATFTRTGKAAQVTIQSSGTFSSKFQVDNNNRLLLQQVSLPELPGEYSMKVTGEGCVYLQTSLKYNILPEKEEFPFALGVQTLPQTCDEPKAHTSFQISLSVSYTGSRSASNMAIVDVKMVSGFIPLKPTVKMLERSNHVSRTEVSSNHVLIYLDKVSNQTLSLFFTVLQDVPVRDLKPAIVKVYDYYETDEFAIAEYNAPCSKDLGNADYKDDDDKGASHHHHHH
# Target: Protease Mixtures
# Test: cell-based or functional assay
binder,measurement,value
B1,"Protease Inhibition (% of WT); Protease Mixtures, IGD Substrate",140 % of WT
B2,"Protease Inhibition (% of WT); Protease Mixtures, IGD Substrate",140 % of WT
B3,"Protease Inhibition (% of WT); Protease Mixtures, IGD Substrate",210 % of WT
B4,"Protease Inhibition (% of WT); Protease Mixtures, Collagen Substrate",170 % of WT
same,"Protease Inhibition (% of WT); Protease Mixtures, IGD Substrate",215 % of WT
